Some targets named below: HLA-A*02:03; HLA-A*02:01; HLA-A*02:02; HLA-A*68:02; HLA-A*02:06.
What all share (experiment): IEDB peptide-MHC binding, purified MHC/competitive/radioactivity; ≥ and ≤ were set here for values at or beyond the usual limits of such assays
Setting [1] is: source organism: Vaccinia virus WR.
Where [2] appears, read: source organism: Influenza A virus.

In general, IC50 refers to the point on the concentration scale where inhibition reaches its midpoint.

Regarding NVDIIDLLL, the IC50 stood at 4090 nM with HLA-A*02:03 (setting [1]); 858 nM with HLA-A*02:01 (setting [1]); 461 nM with HLA-A*02:02 (setting [1]); 262 nM with HLA-A*68:02 (setting [1]); 22 nM with HLA-A*02:06 (setting [1]).

On to NVFISPASI, for which the IC50 with HLA-A*02:03 (setting [1]) came to 0.73 nM; with HLA-A*02:01 (setting [1]), 136 nM; with HLA-A*02:02 (setting [1]), 202 nM; in the assay with HLA-A*68:02 (setting [1]) it was 1.9 nM; in the assay with HLA-A*02:06 (setting [1]), 660 nM.

For NVIEDITFL, the IC50 was found to be 300 nM with HLA-A*02:03 (setting [1]); 304 nM with HLA-A*02:01 (setting [1]); 146 nM with HLA-A*02:02 (setting [1]); 31 nM with HLA-A*68:02 (setting [1]); 26 nM with HLA-A*02:06 (setting [1]).

Regarding NVIGLIVIL, the IC50 in the assay with HLA-A*02:03 (setting [1]) is 2400 nM; in the assay with HLA-A*02:01 (setting [1]), 342 nM; in the assay with HLA-A*02:02 (setting [1]), 85 nM; with HLA-A*68:02 (setting [1]) it was 0.17 nM; with HLA-A*02:06 (setting [1]) it was 15 nM.

Turning to NVISKIYTL, the IC50 with HLA-A*02:03 (setting [1]) is 97 nM; in the assay with HLA-A*02:01 (setting [1]), 147 nM; in the assay with HLA-A*02:02 (setting [1]), 147 nM; in the assay with HLA-A*68:02 (setting [1]), 4.6 nM; with HLA-A*02:06 (setting [1]), 1.7 nM.

As to NVISKIYTLI, the IC50 with HLA-A*02:03 (setting [1]) was determined as 33 nM; with HLA-A*02:01 (setting [1]), 329 nM; with HLA-A*02:02 (setting [1]) it was 0.99 nM; in the assay with HLA-A*68:02 (setting [1]), 67 nM; with HLA-A*02:06 (setting [1]) it was 196 nM.

For NVLAWLYAA, the IC50 with HLA-A*02:03 (source organism: SARS-CoV1) turned out to be 15 nM; with HLA-A*02:01 (source organism: SARS-CoV1), 9.2 nM; with HLA-A*02:02 (source organism: SARS-CoV1), 7.3 nM; with HLA-A*68:02 (source organism: SARS-CoV1), 39 nM; in the assay with HLA-A*02:06 (source organism: SARS-CoV1), 1.6 nM.

NVMGMIGV: the IC50 with HLA-A*02:03 (setting [2]) was found to be 512 nM; with HLA-A*02:01 (setting [2]), 1460 nM; with HLA-A*02:02 (setting [2]), 1980 nM; with HLA-A*68:02 (setting [2]), 98 nM; in the assay with HLA-A*02:06 (setting [2]) it was 1250 nM.

Regarding NVSGVPHSV, the IC50 in the assay with HLA-A*02:03 (setting [1]) is 24 nM; with HLA-A*02:01 (setting [1]) it was 592 nM; with HLA-A*02:02 (setting [1]) it was 825 nM; in the assay with HLA-A*68:02 (setting [1]) it was 2.8 nM; with HLA-A*02:06 (setting [1]), 278 nM.

In the case of NVSRVVECL, the IC50 with HLA-A*02:03 (setting [1]) stood at 938 nM; in the assay with HLA-A*02:01 (setting [1]), 4110 nM; with HLA-A*02:02 (setting [1]), 133 nM; with HLA-A*68:02 (setting [1]) it was 28 nM; with HLA-A*02:06 (setting [1]), 1030 nM.

On to PASISSVLT, for which the IC50 stood at 1360 nM with HLA-A*02:03 (setting [1]); 1200 nM with HLA-A*02:01 (setting [1]); 1380 nM with HLA-A*02:02 (setting [1]); 1490 nM with HLA-A*68:02 (setting [1]); 1490 nM with HLA-A*02:06 (setting [1]).

Take PIIYSKAGNI: the IC50 in the assay with HLA-A*02:03 (setting [1]) was found to be 139 nM; in the assay with HLA-A*02:01 (setting [1]), 873 nM; with HLA-A*02:02 (setting [1]) it was 654 nM; with HLA-A*68:02 (setting [1]), 3110 nM; with HLA-A*02:06 (setting [1]), 728 nM.

Regarding PISDYSAEV, the IC50 with HLA-A*02:03 (setting [1]) was 267 nM; with HLA-A*02:01 (setting [1]), 1050 nM; with HLA-A*02:02 (setting [1]) it was 716 nM; with HLA-A*68:02 (setting [1]), 1390 nM; in the assay with HLA-A*02:06 (setting [1]) it was 2800 nM.

Regarding PLISILMIFI, the IC50 in the assay with HLA-A*02:03 (setting [1]) stood at 769 nM; in the assay with HLA-A*02:01 (setting [1]), 836 nM; with HLA-A*02:02 (setting [1]), 433 nM; in the assay with HLA-A*68:02 (setting [1]), 915 nM; with HLA-A*02:06 (setting [1]), 2420 nM.

As for PMSRLFMDEI, the IC50 came out at 726 nM with HLA-A*02:03 (setting [1]); 4020 nM with HLA-A*02:01 (setting [1]); 1930 nM with HLA-A*02:02 (setting [1]); 1360 nM in the assay with HLA-A*68:02 (setting [1]); 4370 nM with HLA-A*02:06 (setting [1]).

PTSETMYLTM: the IC50 in the assay with HLA-A*02:03 (setting [1]) worked out at 191 nM; in the assay with HLA-A*02:01 (setting [1]), 529 nM; with HLA-A*02:02 (setting [1]) it was 862 nM; with HLA-A*68:02 (setting [1]), 4210 nM; with HLA-A*02:06 (setting [1]) it was 915 nM.

For QIFNIISYI, the 50% inhibitory concentration (IC50) with HLA-A*02:03 (setting [1]) turned out to be 15 nM; with HLA-A*02:01 (setting [1]), 15 nM; with HLA-A*02:02 (setting [1]), 111 nM; with HLA-A*68:02 (setting [1]) it was 6.4 nM; with HLA-A*02:06 (setting [1]), 1.8 nM.

For the sequence QIFNIISYII, the IC50 amounted to 206 nM in the assay with HLA-A*02:03 (setting [1]); 355 nM in the assay with HLA-A*02:01 (setting [1]); 288 nM in the assay with HLA-A*02:02 (setting [1]); 332 nM with HLA-A*68:02 (setting [1]); 743 nM with HLA-A*02:06 (setting [1]).

Take QIMECSRML: the IC50 in the assay with HLA-A*02:03 (setting [1]) amounted to 1380 nM; in the assay with HLA-A*02:01 (setting [1]), 103 nM; in the assay with HLA-A*02:02 (setting [1]) it was 620 nM; in the assay with HLA-A*68:02 (setting [1]), 1400 nM; with HLA-A*02:06 (setting [1]), 948 nM.

With QLFKYVPSA, the IC50 with HLA-A*02:03 (setting [1]) was determined as 7.8 nM; in the assay with HLA-A*02:01 (setting [1]) it was 7 nM; in the assay with HLA-A*02:02 (setting [1]), 12 nM; with HLA-A*68:02 (setting [1]), 1620 nM; with HLA-A*02:06 (setting [1]), 349 nM.

As for QLMCQPILL, the IC50 worked out at 12 nM with HLA-A*02:03 (source organism: SARS-CoV1); 0.96 nM with HLA-A*02:01 (source organism: SARS-CoV1); 3 nM with HLA-A*02:02 (source organism: SARS-CoV1); 140 nM with HLA-A*68:02 (source organism: SARS-CoV1); 77 nM in the assay with HLA-A*02:06 (source organism: SARS-CoV1).

QLMCQPILLL: the IC50 with HLA-A*02:03 (source organism: SARS-CoV1) turned out to be 217 nM; with HLA-A*02:01 (source organism: SARS-CoV1), 12 nM; with HLA-A*02:02 (source organism: SARS-CoV1) it was 92 nM; in the assay with HLA-A*68:02 (source organism: SARS-CoV1), 2310 nM; in the assay with HLA-A*02:06 (source organism: SARS-CoV1), 325 nM.

For QLMYDIINSV, the IC50 with HLA-A*02:03 (setting [1]) worked out at 0.14 nM; with HLA-A*02:01 (setting [1]), 0.78 nM; with HLA-A*02:02 (setting [1]), 1.9 nM; in the assay with HLA-A*68:02 (setting [1]), 165 nM; with HLA-A*02:06 (setting [1]), 5.6 nM.

For QMAGVEVRYI, the IC50 with HLA-A*02:03 (setting [1]) was determined as 0.14 nM; with HLA-A*02:01 (setting [1]), 6.4 nM; with HLA-A*02:02 (setting [1]) it was 0.21 nM; with HLA-A*68:02 (setting [1]) it was 147 nM; in the assay with HLA-A*02:06 (setting [1]), 45 nM.

For the origin of these results see the Immune Epitope Database (IEDB).
